Results reported in patent publication US20110263454A1, “Methods of Identifying Functional Characteristics of Promoters, Transcription Modifying Proteins and Transcription Modulating Agents” (Salk Institute for Biological Studies, priority 2008, published 2011).

Experiments:
[1] = tested on: hTNFa promoter; assay: NHR-promoter luciferase screen, hTNFa promoter; assay type: cell-based, human; conditions: for Luc. act., normalized to lacZ / Normalized Luc. act., normalized to control: TNFa promoter, HR component without or with ligand; for hTNFa promoter reporter activity: transcription factor +/- ligand, control = 1.00
Summary of the method: (§1)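 CV-1 cells were co-transfected with 50 ng NHR (homodimer or NHR/RXR heterodimer), 100 ng promoter-luciferase construct and 50 ng LacZ. Luciferase was normalized to LacZ and to a no-NHR/no-ligand control.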

[2] = tested on: mPgc1b promoter; assay: NHR-promoter luciferase screen, mPgc1b promoter; assay type: cell-based, mouse; conditions: for Luc. act., normalized to lacZ / Normalized Luc. act., normalized to control: PGC1b promoter reporter, co-transfected HR, without or with its ligand; for Normalized Luc. act., normalized to control: relative to control; for luciferase activity normalized to lacZ activity and to a control, mPgc1b: mPgc1b promoter-luciferase, CV-1 cells, NHR +/- ligand, control = 1.00
Summary of the method: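 Luciferase reporter read-out after co-expression in CV-1 cells of V5H6-tagged receptor (alone or with RXR), the promoter construct and LacZ. Values are luciferase/LacZ relative to a control lacking NHR or ligand; orphan receptors tested ligand-free.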

[3] = tested on: hPPARg2 promoter; assay: NHR-promoter luciferase screen, hPPARg2 promoter; assay type: cell-based, human; conditions: for Luc. act., normalized to lacZ / Normalized Luc. act., normalized to control: PPARG2 promoter, hormone receptor with or without its ligand; for Normalized Luc. act., normalized to control: relative to control; for Results of assays of transcription factor (+/- ligand) with hPPARg2: Table 6d, luciferase activity relative to control (control = 1.00)
Summary of the method: as §1

[4] = tested on: SREBP1c promoter; assay: NHR-promoter luciferase screen, SREBP1c promoter; assay type: cell-based, mouse; conditions: for Luc. act., normalized to lacZ / Normalized Luc. act., normalized to control: SREBP1c promoter, HR component without or with ligand; for mSREBP1-c promoter reporter activity: transcription factor +/- ligand, control = 1.00
Summary of the method: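 Values are luciferase activity normalised to LacZ (transfection control) and to a control lacking NHR or ligand. Read-out at 48 h in CV-1 cells carrying 100 ng promoter-reporter, 50 ng receptor (alone or with RXR) and 50 ng LacZ.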

[5] = tested on: hPOMC promoter; assay: NHR-promoter luciferase screen, hPOMC promoter; assay type: cell-based, human; conditions: for Luc. act., normalized to lacZ / Normalized Luc. act., normalized to control: hPOMC promoter, HR/ligand component; for hPOMC promoter reporter activity: transcription factor +/- ligand, control = 1.00
Summary of the method: as §1

[6] = tested on: hMDR1 promoter; assay: NHR-promoter luciferase screen, hMDR1 promoter; assay type: cell-based, human; conditions: for Luc. act., normalized to lacZ / Normalized Luc. act., normalized to control: MDR1 promoter, HR/ligand component; for hMDR1 promoter reporter activity: transcription factor +/- ligand, control = 1.00
Summary of the method: as §1

Molecule	Luc. act., normalized to lacZ [1]	Normalized Luc. act., normalized to control [1]	hTNFa promoter reporter activity [1]	Luc. act., normalized to lacZ [2]	Normalized Luc. act., normalized to control [2]	luciferase activity normalized to lacZ activity and to a control, mPgc1b [2]	Luc. act., normalized to lacZ [3]	Normalized Luc. act., normalized to control [3]	Results of assays of transcription factor (+/- ligand) with hPPARg2 [3]	Luc. act., normalized to lacZ [4]	Normalized Luc. act., normalized to control [4]	mSREBP1-c promoter reporter activity [4]	Luc. act., normalized to lacZ [5]	Normalized Luc. act., normalized to control [5]	hPOMC promoter reporter activity [5]	Luc. act., normalized to lacZ [6]	Normalized Luc. act., normalized to control [6]	hMDR1 promoter reporter activity [6]
RVRb: Rev-Erb β (NR1D2, alternative name RVR), cDNA driver (protein, UniProt Q14995 1-579, looked up) Nuclear receptor subfamily 1 …: MEVNAGGVIAYISSSSSASSPASCHSEGSENSFQSSSSSVPSSPNSSNSDTNGNPKNGDLANIEGILKNDRIDCSMKTSKSSAPGMTKSHSGVTKFSGMVLLCKVCGDVASGFHYGVHACEGCKGFFRRSIQQNIQYKKCLKNENCSIMRMNRNRCQQCRFKKCLSVGMSRDAVRFGRIPKREKQRMLIEMQSAMKTMMNSQFSGHLQNDTLVEHHEQTALPAQEQLRPKPQLEQENIKSSSPPSSDFAKEEVIGMVTRAHKDTFMYNQEQQENSAESMQPQRGERIPKNMEQYNLNHDHCGNGLSSHFPCSESQQHLNGQFKGRNIMHYPNGHAICIANGHCMNFSNAYTQRVCDRVPIDGFSQNENKNSYLCNTGGRMHLVCPMSKSPYVDPHKSGHEIWEEFSMSFTPAVKEVVEFAKRIPGFRDLSQHDQVNLLKAGTFEVLMVRFASLFDAKERTVTFLSGKKYSVDDLHSMGAGDLLNSMFEFSEKLNALQLSDEEMSLFTAVVLVSADRSGIENVNSVEALQETLIRALRTLIMKNHPNEASIFTKLLLKLPDLRSLNNMHSEELLAFKVHP	1017.6	1.0	1.04	9.3	0.8	0.78	1.0	0.5	0.48	721.7	2.2	2.24	2.8	0.7	0.66	0.3	0.9	0.94
RARa: Retinoic acid receptor α (NR1B1), nuclear hormone receptor cDNA driver (protein, UniProt P10276 1-462, looked up) Retinoic acid receptor alpha: MASNSSSCPTPGGGHLNGYPVPPYAFFFPPMLGGLSPPGALTTLQHQLPVSGYSTPSPATIETQSSSSEEIVPSPPSPPPLPRIYKPCFVCQDKSSGYHYGVSACEGCKGFFRRSIQKNMVYTCHRDKNCIINKVTRNRCQYCRLQKCFEVGMSKESVRNDRNKKKKEVPKPECSESYTLTPEVGELIEKVRKAHQETFPALCQLGKYTTNNSSEQRVSLDIDLWDKFSELSTKCIIKTVEFAKQLPGFTTLTIADQITLLKAACLDILILRICTRYTPEQDTMTFSDGLTLNRTQMHNAGFGPLTDLVFAFANQLLPLEMDDAETGLLSAICLICGDRQDLEQPDRVDMLQEPLLEALKVYVRKRRPSRPHMFPKMLMKITDLRSISAKGAERVITLKMEIPGSMPPLIQEMLENSEGLDTLSGQPGGGGRDGGGLAPPPGSCSPSLSPSSNRSSPATHSP	1363.2	1.4	1.39	12.69	1.1	1.07	3.5	1.7	1.73	854.2	2.7	2.65	3.2	0.7	0.74	0.2	0.7	0.67
RARb: Retinoic acid receptor β (NR1B2), nuclear hormone receptor cDNA driver (protein, UniProt P10826 1-455, looked up) Retinoic acid receptor beta: MTTSGHACPVPAVNGHMTHYPATPYPLLFPPVIGGLSLPPLHGLHGHPPPSGCSTPSPATIETQSTSSEELVPSPPSPLPPPRVYKPCFVCQDKSSGYHYGVSACEGCKGFFRRSIQKNMIYTCHRDKNCVINKVTRNRCQYCRLQKCFEVGMSKESVRNDRNKKKKETSKQECTESYEMTAELDDLTEKIRKAHQETFPSLCQLGKYTTNSSADHRVRLDLGLWDKFSELATKCIIKIVEFAKRLPGFTGLTIADQITLLKAACLDILILRICTRYTPEQDTMTFSDGLTLNRTQMHNAGFGPLTDLVFTFANQLLPLEMDDTETGLLSAICLICGDRQDLEEPTKVDKLQEPLLEALKIYIRKRRPSKPHMFPKILMKITDLRSISAKGAERVITLKMEIPGSMPPLIQEMLENSEGHEPLTPSSSGNTAEHSPSISPSSVENSGVSQSPLVQ	1854.5	1.9	1.89	14.32	1.2	1.21	3.4	1.7	1.72	1056.4	3.3	3.28	4.3	1.0	1.00	0.3	1.0	0.97
RARg: Retinoic acid receptor γ (NR1B3), nuclear hormone receptor cDNA driver (protein, UniProt P13631 1-454, looked up) Retinoic acid receptor gamma: MATNKERLFAAGALGPGSGYPGAGFPFAFPGALRGSPPFEMLSPSFRGLGQPDLPKEMASLSVETQSTSSEEMVPSSPSPPPPPRVYKPCFVCNDKSSGYHYGVSSCEGCKGFFRRSIQKNMVYTCHRDKNCIINKVTRNRCQYCRLQKCFEVGMSKEAVRNDRNKKKKEVKEEGSPDSYELSPQLEELITKVSKAHQETFPSLCQLGKYTTNSSADHRVQLDLGLWDKFSELATKCIIKIVEFAKRLPGFTGLSIADQITLLKAACLDILMLRICTRYTPEQDTMTFSDGLTLNRTQMHNAGFGPLTDLVFAFAGQLLPLEMDDTETGLLSAICLICGDRMDLEEPEKVDKLQEPLLEALRLYARRRRPSQPYMFPRMLMKITDLRGISTKGAERAITLKMEIPGPMPPLIREMLENPEMFEDDSSQPGPHPNASSEDEVPGGQGKGGLKSPA	1458.6	1.5	1.48	12.70	1.1	1.07	3.0	1.5	1.51	1052.4	3.3	3.27	3.7	0.9	0.87	0.3	0.8	0.85
PPARd: Peroxisome proliferator activated receptor δ (NR1C2), cDNA driver (protein, UniProt Q03181 1-441, looked up) Peroxisome …: MEQPQEEAPEVREEEEKEEVAEAEGAPELNGGPQHALPSSSYTDLSRSSSPPSLLDQLQMGCDGASCGSLNMECRVCGDKASGFHYGVHACEGCKGFFRRTIRMKLEYEKCERSCKIQKKNRNKCQYCRFQKCLALGMSHNAIRFGRMPEAEKRKLVAGLTANEGSQYNPQVADLKAFSKHIYNAYLKNFNMTKKKARSILTGKASHTAPFVIHDIETLWQAEKGLVWKQLVNGLPPYKEISVHVFYRCQCTTVETVRELTEFAKSIPSFSSLFLNDQVTLLKYGVHEAIFAMLASIVNKDGLLVANGSGFVTREFLRSLRKPFSDIIEPKFEFAVKFNALELDDSDLALFIAAIILCGDRPGLMNVPRVEAIQDTILRALEFHLQANHPDAQYLFPKLLQKMADLRQLVTEHAQMMQRIKKTETETSLHPLLQEIYKDMY	1138.3	1.2	1.16	7.88	0.7	0.67	2.5	1.2	1.24	658.7	2.0	2.04	3.8	0.9	0.89	0.3	0.9	0.90
